Reference: PMC3478187, “PEGylation, increasing specific activity and multiple dosing as strategies to improve the risk-benefit profile of targeted radionuclide therapy with ^177Lu-DOTA-bombesin analogues” (EJNMMI Research, 2012)
Read-outs that look alike come from different tables or passages of the source.

Assays:
BN2/GRP receptors = target: T1, BN2/GRP receptors (Homo sapiens, UniProt P30550); experiment: Apparent receptor affinity (IC50), displacement of ^99mTc-BN(7-14) on whole PC-3 cells; assay type: binding
T1 construct: Since IC50 determination was done on whole PC-3 cells; endogenous in cells; host or cells: PC-3 cells (human prostate carcinoma)
T1 sequence (P30550 whole entry): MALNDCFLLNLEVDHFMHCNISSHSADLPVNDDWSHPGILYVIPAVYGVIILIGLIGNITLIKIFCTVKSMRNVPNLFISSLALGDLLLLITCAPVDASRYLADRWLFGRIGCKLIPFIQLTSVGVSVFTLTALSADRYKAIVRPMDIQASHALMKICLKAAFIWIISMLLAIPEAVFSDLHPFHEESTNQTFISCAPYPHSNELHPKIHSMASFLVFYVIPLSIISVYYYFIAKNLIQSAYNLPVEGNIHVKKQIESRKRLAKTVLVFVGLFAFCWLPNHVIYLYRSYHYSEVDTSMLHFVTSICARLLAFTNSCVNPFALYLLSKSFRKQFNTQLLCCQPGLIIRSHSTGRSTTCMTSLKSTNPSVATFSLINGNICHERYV
Description: Material & Methods: PC-3 cells at confluence were placed in 48-well plates and left to attach overnight. […] After 1 h incubation at 37°C, the cells were twice washed with cold PBS and solubilized by adding 400 μl (2 x) of 1 N NaOH at 37°C. The bound radioactivity was measured in the gamma counter. The experiments were performed in triplicate.

[1] = Biodistribution in nude mice bearing PC-3 tumour xenografts; conditions: female, CD-1 nu/nu, mouse, in vivo, iv, total radioactivity; for tissue uptake at 1 h / tissue uptake at 24 h: 0.3 MBq/0.075 nmol i.v., mean ± SD
Description: All animal experiments were conducted in compliance with the Swiss animal protection laws and with the ethical principles and guidelines for scientific animal experimentation established by the Swiss Academy of Natural Sciences. Biodistribution studies were performed with 6- to 8-week-old female CD-1 nu/nu mice (20 to 25 g) purchased from Charles River Laboratories (Sulzfeld, Germany). For the induction of tumour xenografts, each mouse received subcutaneously 8 × 10^6 PC-3 cells in 150 μl culture medium without supplements. The tumours were allowed to grow for at least 3 weeks. On the day of the experiment, the mice (3 to 6 per group) received the radioactive conjugates intravenously. […] Receptor-blocking studies were performed using 100 μg of unlabelled BN(1–14) co-injected with the corresponding radiolabelled BN analogue. At 1, 4 and 24 h post injection (p.i.), the animals were euthanised and dissected. Blood, tumours and various healthy tissues and organs were collected, weighed and examined for radioactivity. Results are expressed as percentage of injected dose per gram of tissue (% ID/g).

[2] = Metabolic stability in human plasma; assay type: in vitro ADME; conditions: 37 °C
Description: The labelled analogues were incubated with human plasma (final concentration, 10 MBq/0.6 ml) at 37 °C for various time intervals up to 12 days. After incubation, proteins were precipitated with acetonitrile/ethanol (1:1) and TFA (0.1%) and then centrifuged. The supernatant was analysed with RP-high-performance liquid chromatography (HPLC) equipped with a radioactivity detector. […] The experiments were performed two times.

[3] = Octanol/PBS partition coefficient (log D); assay type: physicochemical; conditions: shake-flask 1-octanol/PBS (1:1), pH 7.4, 30 kBq, vortex 1 min, centrifuged, gamma counter, sextuplicate, mean ± SD
Description: Material & Methods: The octanol/PBS partition coefficients were determined at pH 7.4. Five μl containing 30 kBq of the radiolabelled compounds in phosphate buffered saline (PBS) were added to a vial which contained 1.2 ml of 1-octanol and PBS (1:1). After vortexing for 1 min, the vial was centrifuged (5 min, 10 000 rpm) to ensure complete separation of layers. Then, 40 μl of each layer were taken in a preweighed vial and measured in a gamma counter (Packard Canberra Cobra II, Meriden, USA). Counts per weight unit of sample were calculated and log D values were determined as described by Pillarsetty et al. using the formula log10D=log10 (counts in 1 g of octanol/counts in 1 g of PBS). The experiments were performed in sextuplicate.

[4] = cited from earlier work; for GI uptake: HPLC purified
Description: The biodistribution data, in which 0.002 nmol of ^177Lu-AMBA and ^177Lu-DOTA-8-AOC-BN(7–14) (HPLC purified) was injected per mouse [23], and the data of ^177Lu-DOTA-PESIN (0.2 nmol peptide) [25] were compared with our biodistribution data, in which 0.075 nmol of the ^177Lu-labelled BN analogues were injected. This 0.075 nmol is the nearest possible approximation to the 0.002 nmol without HPLC purification, which is desired in clinics.

[5] = cited from earlier work
PC-3 xenografts = conditions: ref [24]; cited from earlier work
Excerpt: Comparing our study with the therapy studies with ^177Lu-AMBA [23], ^177Lu-DOTA-PESIN [25] (2 × 28 MBq, 0.2 nmol) and ^177Lu-DOTA-8-AOC-BN(7–14), we found the tumour growth inhibition with our PEGylated BN analogue to be lower than with AMBA (approximately 73% vs. approximately 82%) but higher than with DOTA-PESIN (approximately 73% vs. approximately 45%) and roughly the same as with ^177Lu-DOTA-8-AOC-BN(7–14) (approximately 73% vs. approximately 79%) 3 weeks after the first dose. However, such a comparison is not fully conclusive since these therapy studies differ in tumour size at ...

[6] = 1 h p.i., 0.002 nmol per mouse, ref [23]
[7] = 24 h p.i., 0.002 nmol per mouse, ref [23]

CCCC[C@H](NC(=O)[C@H](CC1CCCCC1)NC(=O)[C@H](Cc1c[nH]cn1)NC(=O)CNC(=O)[C@@H](NC(=O)[C@H](C)NC(=O)[C@H](Cc1c[nH]c2ccccc12)NC(=O)[C@H](CCC(N)=O)NC(=O)CCNC(=O)CCNC(=O)CC(CCCCN)NC(=O)CN1CCN(CC(=O)O)CCN(CC(=O)O)CCN(CC(=O)O)CC1)C(C)C)C(N)=O (stereo partly drawn) [DOTA-Lys-BN, DOTA-β^3hLys-βAla-βAla-Gln^7-Trp^8-Ala^9-Val^10-Gly^11-His^12-Cha^13-Nle^14-NH2]
IC50 (BN2/GRP receptors): 2.03 ± 0.42 nM

CCCC[C@H](NC(=O)[C@H](CC1CCCCC1)NC(=O)[C@H](Cc1c[nH]cn1)NC(=O)CNC(=O)[C@@H](NC(=O)[C@H](C)NC(=O)[C@H](Cc1c[nH]c2ccccc12)NC(=O)[C@H](CCC(N)=O)NC(=O)CCNC(=O)CCNC(=O)CC(CCCCN)NC(=O)CN1CCN(CC(=O)O)CCN(CC(=O)O)CCN(CC(=O)O)CC1)C(C)C)C(N)=O (stereo partly drawn) [^177Lu-DOTA-Lys-BN, metal not drawn]
tissue uptake at 1 h ([1]; 1 h p.i. blocked, 100 μg unlabelled BN(1–14) co-injected, n = 3 to 4, read-out: Colon uptake, blocked): 0.36 ± 0.07 %ID/g
tissue uptake at 1 h ([1]; 1 h p.i. blocked, 100 μg unlabelled BN(1–14) co-injected, n = 3 to 4, read-out: Pancreas uptake, blocked): 0.49 ± 0.22 %ID/g
tissue uptake at 1 h ([1]; 1 h p.i. blocked, 100 μg unlabelled BN(1–14) co-injected, n = 3 to 4, read-out: Tumour uptake, blocked): 0.55 ± 0.03 %ID/g
tissue uptake at 1 h ([1]; 1 h p.i., n = 3 to 4, read-out: Blood uptake): 0.24 ± 0.07 %ID/g
tissue uptake at 1 h ([1]; 1 h p.i., n = 3 to 4, read-out: Bone uptake): 0.36 ± 0.24 %ID/g
tissue uptake at 1 h ([1]; 1 h p.i., n = 3 to 4, read-out: Colon uptake): 1.64 ± 0.4 %ID/g
tissue uptake at 1 h ([1]; 1 h p.i., n = 3 to 4, read-out: Heart uptake): 0.14 ± 0.06 %ID/g
tissue uptake at 1 h ([1]; 1 h p.i., n = 3 to 4, read-out: Kidneys uptake): 2.86 ± 0.63 %ID/g
tissue uptake at 1 h ([1]; 1 h p.i., n = 3 to 4, read-out: Liver uptake): 0.26 ± 0.09 %ID/g
tissue uptake at 1 h ([1]; 1 h p.i., n = 3 to 4, read-out: Lung uptake): 0.36 ± 0.08 %ID/g
tissue uptake at 1 h ([1]; 1 h p.i., n = 3 to 4, read-out: Muscle uptake): 0.2 ± 0.24 %ID/g
tissue uptake at 1 h ([1]; 1 h p.i., n = 3 to 4, read-out: Pancreas uptake): 8.68 ± 1.95 %ID/g
tissue uptake at 1 h ([1]; 1 h p.i., n = 3 to 4, read-out: Small intestine uptake): 1.38 ± 0.41 %ID/g
tissue uptake at 1 h ([1]; 1 h p.i., n = 3 to 4, read-out: Spleen uptake): 0.42 ± 0.12 %ID/g
tissue uptake at 1 h ([1]; 1 h p.i., n = 3 to 4, read-out: Stomach uptake): 0.72 ± 0.19 %ID/g
tissue uptake at 1 h ([1]; 1 h p.i., n = 3 to 4, read-out: Tumour uptake): 1.88 ± 0.47 %ID/g
tissue to tissue ratio at 24 h ([1]; 24 h p.i., 0.075 nmol, read-out: tumour-to-liver ratio): 5.9
tissue uptake at 24 h ([1]; 24 h p.i., n = 3 to 4, read-out: Bone uptake): 0.02 ± 0.01 %ID/g
tissue uptake at 24 h ([1]; 24 h p.i., n = 3 to 4, read-out: Colon uptake): 0.36 ± 0.09 %ID/g
tissue uptake at 24 h ([1]; 24 h p.i., n = 3 to 4, read-out: Heart uptake): 0.01 ± 0.01 %ID/g
tissue uptake at 24 h ([1]; 24 h p.i., n = 3 to 4, read-out: Kidneys uptake): 1.41 ± 0.14 %ID/g
tissue uptake at 24 h ([1]; 24 h p.i., n = 3 to 4, read-out: Liver uptake): 0.09 ± 0.02 %ID/g
tissue uptake at 24 h ([1]; 24 h p.i., n = 3 to 4, read-out: Lung uptake): 0.02 ± 0.01 %ID/g
tissue uptake at 24 h ([1]; 24 h p.i., n = 3 to 4, read-out: Muscle uptake): 0.01 %ID/g
tissue uptake at 24 h ([1]; 24 h p.i., n = 3 to 4, read-out: Pancreas uptake): 4.27 ± 0.85 %ID/g
tissue uptake at 24 h ([1]; 24 h p.i., n = 3 to 4, read-out: Small intestine uptake): 0.16 ± 0.03 %ID/g
tissue uptake at 24 h ([1]; 24 h p.i., n = 3 to 4, read-out: Spleen uptake): 0.18 ± 0.04 %ID/g
tissue uptake at 24 h ([1]; 24 h p.i., n = 3 to 4, read-out: Stomach uptake): 0.1 ± 0.02 %ID/g
tissue uptake at 24 h ([1]; 24 h p.i., n = 3 to 4, read-out: Tumour uptake): 0.54 ± 0.3 %ID/g
remaining at 120 h, 10 MBq/0.6 ml ([2]; 10 MBq/0.6 ml, 5 days, precipitation acetonitrile/ethanol (1:1) + 0.1% TFA, RP-HPLC radioactivity detector, performed two times, mean ± SD, read-out: remained intact after 5 days): 13.8 ± 5.7%
half-life at 10 MBq/0.6 ml ([2]; 10 MBq/0.6 ml, up to 12 days, RP-HPLC radioactivity detector, performed two times, mean ± SD): 28.8 h
half-life (t1/2) in human plasma ([2]; in vitro, as printed in hours in the discussion): 28.8 h
logD [3]: -2.18 ± 0.07

DO3A-CH2CO-8-aminooctanoyl-Gln-Trp-Ala-Val-Gly-His-Leu-Met-NH2 [^177Lu-AMBA]
GI uptake [4, 6]: 11.2 %ID
tumour uptake [4, 6]: 6.35 ± 2.23 % ID/g
GI uptake [4, 7]: 5.8 % ID
half-life (t1/2) in human plasma ([5]; ref [23]): 38.8 h

DOTA-8-AOC-BN(7–14)NH2 [^177Lu-DOTA-8-AOC-BN(7–14)]
tumour growth inhibition 3 weeks after the first dose (PC-3 xenografts): approximately 79%
GI uptake [4, 6]: 9.7 %ID
tumour uptake [4, 6]: 2.84 ± 1.65 % ID/g
GI uptake [4, 7]: 1.7 % ID

DOTA-15-amino-4,7,10,13-tetraoxapentadecanoic acid-Gln-Trp-Ala-Val-Gly-His-Leu-Met-NH2 [^177Lu-DOTA-PESIN]
kidney uptake ([4]; 1 h p.i., 0.2 nmol peptide, Gelofusine and polyglutamic acid co-administered, ref [25]): 3.8 ± 0.34 %ID/g
tumour uptake ([4]; 1 h p.i., 0.2 nmol peptide, ref [25]): 11.6 ± 1.4 %ID/g
half-life (t1/2) in human plasma ([5]; ref [25]): 8.4 h
